Residue numbers refer to the chain shown, from its start. Values belong to the binder of their own block, whether it stands above or below them.
Experiments:
mouse PD-L1 = mouse PD-L1 (mouse, UniProt Q9EP73); experiment: SPR
human PD-L1 [1] = target: T1, human PD-L1 (human, UniProt Q9NZQ7); experiment: SPR
human PD-L1 [2] = target: T1, human PD-L1; experiment: BLI

T1 sequence (Q9NZQ7 19-238): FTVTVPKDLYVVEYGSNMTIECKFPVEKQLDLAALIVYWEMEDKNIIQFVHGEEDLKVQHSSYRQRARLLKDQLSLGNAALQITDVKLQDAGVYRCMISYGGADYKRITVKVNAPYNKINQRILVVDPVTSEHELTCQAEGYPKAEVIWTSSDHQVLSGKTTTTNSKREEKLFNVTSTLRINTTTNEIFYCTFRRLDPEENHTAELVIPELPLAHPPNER
Sequence of mouse PD-L1 (Q9EP73 19-238): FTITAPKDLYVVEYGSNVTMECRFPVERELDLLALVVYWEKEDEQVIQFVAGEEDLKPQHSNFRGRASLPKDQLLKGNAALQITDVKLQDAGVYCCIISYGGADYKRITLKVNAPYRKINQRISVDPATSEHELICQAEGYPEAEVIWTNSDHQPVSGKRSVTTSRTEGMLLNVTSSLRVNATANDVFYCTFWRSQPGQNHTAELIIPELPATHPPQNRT

- Kd (mouse PD-L1): ~2.8 nM
- Kd (human PD-L1 [1]): ~0.0632 nM
- Kd (human PD-L1 [2]): 0.00489 nM
B1: KL001-13 (antibody, V domains shown)
VH: QVQLVESGAEVKKPGSSVKVSCKASGGTFSSYAISWVRQAPGQGLEWMGRIIPILGIANYAQKFQGRVTVTADKSTSTAYMELSSLRSEDTAVYYCARSGYGYAYGSFDYWGQGTLVTVSS
VL: QLVLTQPPSVSGAPGQTVTISCTGQTIGAGYDVHWYQQLPGAAPKLLIYGNLNRPSGVPDRFSGSKSGTSASLAITDLQAEDEADYYCQSYDSRLGVVFGGGTKLTVL

- Kd (human PD-L1 [2]): 0.0584 nM
B2: KL001 (PL110) (antibody, V domains shown)
VH: B1 VH with G102S
VL: B1 VL with Q25P
